# Biological target: envelope glycoproteins of HIV-1HxB2 strain on Env-pseudotyped luciferase reporter virus (HIV-1 HxB2) (UniProt P04578)
# Assay: cell-based or functional assay
substance,measurement,value
2D-CD4 secreted by L. jensenii harboring pOSEL651 (P23 promoter-CbsAss-2D-CD4) (from UniProt P01730 26-208),"inhibition of HIV-1 entry (luciferase activity at 48 hours), co-incubation of L. jensenii Xna-651 bacteria at 2.5x10^8/ml with virus and HeLa CD4-CXCR4 cells",79%
2D-CD4 secreted by L. jensenii harboring pOSEL651 (P23 promoter-CbsAss-2D-CD4) (from UniProt P01730 26-208) (receptor),"inhibition of HIV-1 entry (luciferase activity at 48 hours), co-incubation of L. jensenii Xna-651 bacteria at 5x10^8/ml with virus and HeLa CD4-CXCR4 cells",90%

# — US20090148408A1
